This assay concerns the target dEV8 (8-mer self-peptide) peptide on H-2Kb (mouse). Kind of assay: data from.

Results on 1 substance are retold here after paper PMC3962895.

For orientation: Kd means the constant that tells how readily two partners part at equilibrium. High values mean a looser complex, low ones a tighter complex.

As for 2C TCR, the Kd is 84.1 µM.
